According to US20090048196A1 (University of California, published 2009):

Target: N-terminal alkaline phosphatase-tagged RBP (AP-RBP fusion protein) (human, UniProt P02753 19-201)
Assay: AP-RBP binding to live COS-1 cells transfected with bovine STRA6, AP activity read-out
Method: The cells were then washed twice with PBS⁺ and fixed in fresh 2% formaldehyde in PBS⁺ at room temperature for 10 min. After 3 more PBS washes, the cells were heated in PBS for 1 h at 65° C. […] The reaction was stopped by washing cells twice with PBS containing 1 mM CaCl₂. The cells were then lysed in 200 μl of cold PBS containing 1% Triton X-100 and protease inhibitors per well. The cell lysates were centrifuged at 3,000 g at 4° C. for 5 min. The supernatants were removed and heated at 65° C. for 1 h. Twenty microliters of the heated lysate were mixed with 200 μl of pNPP (Sigma) and incubated at 37° C. for 1 h for the AP color reaction. The reactions were stopped by adding 50 μl 3 M NaOH and were transferred to a 96-well plate for reading in a microplate reader at 405 nm.

- Kd: 0.059 µM
B1: bovine STRA6 (wild-type) (receptor)
chain: MSTQAAGNQTSSGATDSEDSYDSWYIDEPQGGQELQPEGLVPSCQPNVPPSLYHTCLAVLSILVLFLLAMLVRRRQLWPRCGHGRPGLPSPVDFLTGDRPRTVPAAVFMVLFSSLCLLLPTEDPLPFLSLASPPGRDGEAETSRGPWKILALLYYPALYYPLAACATVRHGAAHLLGSLLSWAHLGVQVWQRAECPESPKIYKYYSLLASLPLLLGLGFLSLWYPVQLVRSFGHGAATGSKGLQSSYSEEYLRTLLCQKKLKSSSHTCKRGFASQAWMYFRHSVYIPQQGFRLPLKLVLSVTLTGTAIYQVALLLLVGVVPTIQKVRAGITTDVSYLLAGFGIVLSEDRQEVVELVKHHLWALEVCYISALVLSCLLTFLMLVHSLVTHRTNLRALHRGGALDIGPLTQSPRPSRQAIFCWMSFTAYQTAFTCLGLLVQQILFFLGTLTLAFLVFMPMLHGRNLLLLHYLKSSWPFWLTLALAVTLQNAAAHWAFLDTHHGRPGLTNRRALYAATFLLFPVNVLVGTMVAAWRVLLSALYNAVHLGRMDLSLLPLRAATLDPGYHTYCNFLRMEASQSHPAATAFCALLLRTQRPKPRATPQDGLRLGEEEEGIQLLQTKDLVAKGAGPRARQGRARWGLAYTLLHNPALQAFRKTALPGARPNGAQP
notes: also called RBP receptor; WT
